Assay results: publication PMC2651629, “Structure of the Archaeal Pab87 Peptidase Reveals a Novel Self-Compartmentalizing Protease Family” (PLoS ONE, 2009)

Tests used:
[1] = target: Pyrococcus abyssi Pab87 protein (Pyrococcus abyssi); assay: crystal structure; Pab87 co-crystallised with Lu-HPDO3A (200 mM), 20 mM CaCl2, 30% MPD, 100 mM sodium acetate pH 4.6, 18°C; space group P1, eight molecules per asymmetric unit; 2.2 Å
[2] = target: Pyrococcus abyssi Pab87 protein (Pyrococcus abyssi); assay: AUC; sedimentation velocity, 20°C, 40,000 rpm, 10 µM protein in 150 mM Tris pH 8.5, 350 mM NaCl; c(s) and c(M) distributions (Sedfit)
[3] = target: Pyrococcus abyssi Pab87 protein (Pyrococcus abyssi); assay: cryo-EM structure; 0.5 mg/mL Pab87 in 50 mM Tris-HCl pH 8.5, 350 mM NaCl; single-particle reconstruction at around 14 Å, fitted with the X-ray structure

Measured: stoichiometry N

Pyrococcus abyssi Pab87 protein (enzyme)
8: all assays above
